# Laboratory results reported in the nanobody polyreactivity screen of Harvey et al. (2022).
# Assay: yeast display, Sf9 membrane polyspecificity reagent, FACS + sequencing; frameworks hold sequencing errors
# Method in brief: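 A nanobody's polyreactivity label depends on the gate it was sorted from. Yeast display cells were stained with 10% biotinylated, detergent-solubilized Sf9 membrane reagent for 1 hour at 4 °C, enriched on streptavidin microbeads and sorted by FACS. The low and high (top ~1%) gates were set on anti-HA fluorescence for expression and streptavidin fluorescence for reagent binding.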
row,Sequence,polyreactivity (PSR sort gate)
1,QVQLVESGGGLVQAGGSLRLSCAASGRTFRYNAMGWYRQAPGKERELVAAISRSGGRTYYADSVKGRFTISRDNAKNTVYLQMNSLKPEDTAVYYCAAYYYTAGDSSSRYDYWGQGTQVTVSS,high polyreactivity
2,QGQLVESGGGLVQAGGSLRLTCAASGRIFKWYAMGWYIQETGKERELVAAISSAGSTYYADSVKGRFTISRDNAKNTVYLQLNSLKPEDTAVYYCAARKYTFRRKSRYGYWGQGTQVTVSS,high polyreactivity
3,QVQLVESGGGLVQAGGSLRLSCAASGFIFDGYTMGWYRQAPGKERELVAAISRSGGRTYYADSVKGRFTISRDNAKNTVYLQMNSLKPEDTAVYYCAVRYRQYSQTVASDYGYWGQGTQVTLSS,high polyreactivity
4,QVQLVESGGGLVQAGGSLRLSCAASGRIFTYYPMGWYRQAPGKQRELVAAISWNGDSTYYADSVKGRFTISRDNAKNTVYLQMNSLKPEDTAVYYCIADSFTGYDYWGQGTQVTVSS,low polyreactivity
5,QVQLVESGGGLVQAGGSLRLICAASGLTFWYYAMGWYRQAPGKERELVARITRSGVGTYYADSVKGRFTISRDNAKHTVYLQMNSLKPEDTAVYYCNARYQYSWVRYGYDYWGQGTQVTVSS,high polyreactivity
6,QVQLVESGGGLVQAGGSLRLSCAASGRIFERYAMGWYRQAPGKERELVAAISWSGGSTYYADSVKGRFTISRDNAKNTVYLQMNSLKPEDTAVYYCAARKYRSFRQRTGDYWGQGTQVTVSS,high polyreactivity
7,QDQLVESGGGIVQAGGSLRLSCAASGRIFYGYAMGWYRQAPGKERELVAAITSRGTSTYYADSVKGRFTISRDNAKNTVYLQMNSLKPEDTAVFYCNAAYGRSFYSKVFSYNYWGQGTQVTVSS,high polyreactivity
8,QVQLVESGGGLVQAGGSLRLSCAASGSTLHEYVMGWYRQAPGKGRELVAAISRRGDSTYYADSVKGRFTISRDNAKNTVYLQMNSLKPEDTAVYYCAARWYWYWSSWDYYSWGQGTQVTVSS,low polyreactivity
9,QVQLVESGGGLVQAGGSLRLSCAASGSTFYSYAMGWYRQAPGKERELVAAISSSAGSTYYADSVKGRFTISRDNAKNTVYLQMNSLKPEDTAVYYCAAPKRYGVRYGYWGQGTQVTVSS,high polyreactivity
10,QVQLVESGGGLVQAGGSLRLSCATSGYTFTRYAMGWYRQAPGKERELVASISKTGGITYYADSVKGRFTISRDNAKNTVYLQMNSLKPEDTAVYYCNAVSKRRWAKYDYWGQGTQVTVSS,high polyreactivity
11,QVQLVESGGGLVQAGGSLRLSCAASGRIFFPYAMGWYRQAPGKERELVAAINYSGGSTYYADSVKGRFTISRDNAKYTVYLQMNSLKPEDTAVYYCAKEYGKAYDYWGQGTLVTVSS,high polyreactivity
12,QVQLVESGGGLVQAGGSLRLSCAASGITFENYAMGWYRQAPGKETELVASITRSGGNTYYADSVKGRFTISRDTAKNSVYLQMNSLKPEDTAVYDCAKDSGLNDDFIYWGQGTQVTVSS,low polyreactivity
13,QVQRVESGGGLVQAGGSLRLSCGASGSTFWAYVMGWYRPAPGKERELVAAMSSGGTTNYADSVKGRFTISRDNAKNTVYLQMNSLKPEDTAVYYCAAGRPGELDYWGQGTQVTVSS,low polyreactivity
14,KVQLVETGGGLVQAGGSLRLSCAASGSILIYNAMGWYRQAPGKERELVAGISRRGASTYYADSVKGRFTNSRDNAKKTVYLQMKSLKPEDTAVYYCAALGKYIVAWSGDFWGQGTQVTVSS,low polyreactivity
15,QVQLVESGRGLVQAGGSLRLSCAASGRTFPYYAMGWYRQAPGKERELVAAISSSGGSTYYADSVKGRFTISRDNAKNTVYLQMNSLKPEDTAVYYCNRYSRLYLTDDDYWGQGTLVTVSS,high polyreactivity
16,QVQLVESGGGLVQAGGSLRLSCAASGFIFYRYTLGWSRQAPGKERELVAAITSGGSTYYADSVKGRFTISRDNAKNTVYLQMNSLKPEDSAVYYCAAAYQRWFNRRDYWGQGTQVTVSS,high polyreactivity
17,QVQLVESGGGLVQAGGSLRLSCAASGFILYRYAMGWYRQAPGKERELVAAISSGGRTYYADSVKGRFTISRDNAKNTVYLQMNSLKPEDTAVYYCNAAYKNSPYDYWGQGTQVTVSS,high polyreactivity
18,QVQLVESGGGLVQAGGSLRLSCAASGLTFGTYAMGWYRQAPGKERELVAAISTSGVRTYYADSVKGRFTISRDNAKNTVYLQMNSLKPEDTAVYYCAARYNRAYSRDYWGQGTQVTVSS,high polyreactivity
19,QVQLVESGGGLVQAGGSLRLTCAASGSTFGLNAMGWYRQAPAKERELVAAITSRGTRTYYADSVKGRFTISRDNAKNTVYLQMNSLKPEDTAVYYCGKDSGATRYGEYDYWGQGTQVTVSS,low polyreactivity
20,QVQLVESGGGLVQAGGSLRLSCAASGSTFGANAMGWYRQAPGKERELVAVITWNDGSTYYADSVKGRFTISRDNAKNTVYLQMNSLKPEDTAVYYCAAEYADSWSAFDWNYYYWVQGTQVTVSS,high polyreactivity
21,QVQLVESGGGLVQAGGSLRLSSAASGSTLQYNAMGWYRQAPGKERELVASITWSDGSTYYADSVKGRFTISRDNAKNTVYLQMNSLKPEDTAVYYCNRDDQPALWSSGGYNYWGQGTQVTVSS,high polyreactivity
22,QVQLVESGGGLVQAGGSLRLSCAASGFTFHWYAMGWYRQAPGKERELVAAISWSGGSTYYADSVKGRFTISRDNAKNTVYLQMNSLKPEYTAVYYCNAGVYWPGEFDYWGQGTQVTVSS,high polyreactivity

row,Sequence,polyreactivity (PSR sort gate)
1,QVQLVESGGGLVQAGGSLRLSCAASGSIFAPNAMGWYRHAPGKERELVAAISRSGGRTYYADSVKGRFTISRDNAKNTVYLQMNSLKPEDTAVYYCAADYKHQRTYGSWGQGTQVTVSS,high polyreactivity
2,QVQIVESGGGLVQAGGSLRLSCAASGRTFLVNSMGWYRQAPGKEMELVAVITNGGSTYADSVKGRFTISRDNAKNTVYLQMNSLKPEDTAVYNCAARGNRWRSPSGSPYYYWGQGTQVTVSS,high polyreactivity
3,QVQLVESGGGLVQAGGSLSLSCAASGGTFSYYAMGWYRQAPGKGELVAAISSGGSTNYADSVKGRFTISRDNAINTAYLQMNSLKPEDTAVYYCADRYRFWGPYNYWGQGTQVTVSS,high polyreactivity
4,QVQLVESGGGLVQAGGSLRLSCAASGRTIGLYDMGWYRQAHGKERELVAGITRRGGRTYYADSVKGRFTISRDNAKNSVYLQMNSLKPEDTAVYYCAAGTIYLRHAQSPFDYWGQGTQGTVSS,high polyreactivity
5,QVQLVESGGGLVQAGGSLRLSCAASGSTFRYYTMGWYRQAPGKERELVARISRSGGSTYYADSVKGRFTISRDNAKNTVYLQMNSLKPEDTAVYYCAALYYVKPGQRYDYWGQGTQVTVSS,high polyreactivity
6,QVQLVESGGGLVQAGGSLRLSCAASGRTFASYAMGWYRQAPGKERELVATIRRSGTSTYYADSVKGRFTISRDNAKNTVYLQMNSLKPEDTAVYYCAALRSLLYRTYGYWGQGTQVTVSS,low polyreactivity
7,QVQLVESGGGLVQAGGSLRLSCADSGSTFTRYAIGWYRQAPGKEMEFVAAISWSGGITYYADSVKGRFTISRDNAKNTVYFQMKSLKPEDTAVYYCAAKRRYTRGGYGVDYWGQGTQVTVSS,high polyreactivity
8,QVQLVESGGGLVQAGGSLRLSCAASGSIFYRNVMGWYRQAPGKERELVAAITGSGGITYYADSVKGRFTISRDNAKNTVYLQMNSLKPEDTAVYYCNKTSFLVKLDYWGQGTQVTVSS,low polyreactivity
9,QVQIVESGGGLVQAGGSLRLSCAASGFIFVFNAMGWYRQAPGKERELVAAINGGDITNYADSVKGRFTISRDNAKNTVYLQMNSLKPEDTAVYYCAADGEDSLWTGYDYDYWGQGNQVTVSS,low polyreactivity
10,QVQLVESGGGLVQAGGSLRLSCAASGRTFYGYAMGWYRQAPGKERELVAAITRSGGSTYYADSVKGRFTISRDNAKNTVYLQMNSLKPEDTAVYYCAAGGQARHDYWGQGTQVTVSS,low polyreactivity
11,QVQLVESGGGLVQAGGSLRLSCAASVRTFNLHAMGCYTQAPGKERELFAAITRSGDSTYYADSVKGSFTISRDKAKKTVYLQMKSLKPEDTAVYYCAKDNVTTPVVKVTFIPLDYWGQGTQVTVSS,low polyreactivity
12,QVQLVESGGGLVQAGGSLRLSCAASGRTLYGYAMGWYRQAPGKERELVARITGRDGSTDYADSVKGRFTISRDNAKNTVYLQMNSLKPEDTAVYYCNARVRFHWYRSDYWGQGTQVTVSS,high polyreactivity
13,QVQLVESGGGLVQAGGSLRLSCAASGRTFYTYAMGWYRQAPGKESELVATIRWSGGSTRYADSVKGRFTISRDYAKNTVYLQMNSLKPEDTAVYYCAADNYYRRKYKYDYWGQGNQVTVSS,high polyreactivity
14,QVQLVESGGGLVQAGGSLRLSCAASGRTFKYYAMGWYRQAPGKERELVATISFRGGSTYYADSVKGRFTISRDNAKNTVYLQMNSLKPEDTSVYYCARRQWSRRPDDYWGQGTQVTVSS,high polyreactivity
15,QVQLVESGGGLVQAGVSLRLSCDASGSTFHYYVMGSSRQAPGKEREFVAAISRSGGNPYYADSVKGRFTISRDNAKNTVYLQMNSLKPDDTAVYYCAAALSAYVKWDYYYCGQGTQVTVSS,low polyreactivity
16,QVQLVESGGGLVQAGGSLRLSCAASGSIFTSYAIGWYRQAPGKERELVAGIDWSGGGTYYADSVKGRFTISRDNAKNTVYLQMNSLKPEDTAVYYCNADGPYTRYGPVDYWGQGTQVTVSS,low polyreactivity
17,QVQLVESGGGLVQAGGSLRLSCAASGRIFGRYAMGWYRQAPGKERELVAAISSGGNTYYADSVKGRFTISRDNAKNTVYLQMISLKPEDTAVYYCNALYYRPPGYDYWGQGTQLTVSS,high polyreactivity
18,QVQLVESGGGLVQAGGSLRLTSADSGRTLYNYAMRWYRQAPGKERELVAGISSAGSTNYADSVKGRFTISRDNAKNTVYLQMNSLKPEDTAVYYCNAVLRRRWVTFYYWGQGPQVTVSS,high polyreactivity
19,QVQLVESGGGLVQAGGSLRLSCAPSGSTINQYAMGWYRQAPGKESELVAAITRRGGSTYYADSVKGRFTISRDNAKNTVYLQMNSLKPEDTAVYYCAAAYPYTTVSYDYWGQGTQVTVSS,high polyreactivity
20,QVQLVESVGGLVQAGGSLRLSCAASGLIFATYAMGWYRQAPGKESELVADITTTGSTYYADSVKGRFTISRDNAKNTDYLQMNSLKPEATAVYYCAAYCRLLSGYDFDYWGKGTQVTVSS,high polyreactivity
21,QVQIVESRGGIVQAGGSLRLRCAASGSTFAGNAMGWYRQPPGKERELVAAITSSGGTTYYADSVKGRFTISRDNEKNTVYLQMNSLKPEDSAVYYCAAKSRRTRRSYYWGQGTQVNVSS,high polyreactivity
